Data taken from patent publication US10047131B2, “Peptides and combination of peptides for use in immunotherapy against ovarian cancer and other cancers” (immatics biotechnologies GmbH, priority 2015, dated 2018).

What follows are substances tested against HLA-A*02:01 (Homo sapiens, UniProt P04439, D140Y/D185E/D98H/E176V/E277Q/G131W/G231S/I119V/I121R/I166T/I218V/L300P/L318F/N151K/N90K/P208A/P217A/Q86G/Q94H/R138H/R169H/T345S) (assay: MHC binding assay (UV-ligand exchange, ELISA of exchange yield)). Conditions: binding to HLA-A*02:01, UV-ligand exchange.
Outline: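 ELISA of β2m retained on streptavidin-captured, 100-fold diluted complexes (HRP anti-β2m, TMB, 450 nm) gives the yield. Complexes come from UV-triggered exchange of a photocleavable placeholder peptide for the candidate, which must bind to stop complex dissociation.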

Substance | Peptide exchange (MHC class I binding score, peptide exchange yield)
437 (SMAPGLVIQAV; listed as Homo sapiens) [compound 437] | “+++” (≥50 = +++)
438 (KLLPLAGLYL; listed as Homo sapiens) [compound 438] | “++++” (≥75% = ++++)
442 (GLLGGGGVLGV; listed as Homo sapiens) [compound 442] | “+++” (≥50 = +++)
446 (QLIPALAKV; listed as Homo sapiens) [compound 446] | “+++” (≥50 = +++)
448 (NLLETKLQL; listed as Homo sapiens) [compound 448] | “+++” (≥50 = +++)
449 (KLAEGLDIQL; listed as Homo sapiens) [compound 449] | “+++” (≥50 = +++)
450 (FMIDASVHPTL; listed as Homo sapiens) [compound 450] | “+++” (≥50 = +++)
452 (ILLEHGADPNL; listed as Homo sapiens) [compound 452] | “+++” (≥50 = +++)
455 (SLLKEPQKVQL; listed as Homo sapiens) [compound 455] | “++” (≥20% = ++)
456 (LLIGHLERV; listed as Homo sapiens) [compound 456] | “+++” (≥50 = +++)
457 (SLLPGNLVEKV; listed as Homo sapiens) [compound 457] | “+++” (≥50 = +++)
458 (SLIDKLYNI; listed as Homo sapiens) [compound 458] | “++” (≥20% = ++)
459 (ALITEVVRL; listed as Homo sapiens) [compound 459] | “++” (≥20% = ++)
460 (AMLEKNYKL; listed as Homo sapiens) [compound 460] | “++++” (≥75% = ++++)
462 (KLAKQPETV; listed as Homo sapiens) [compound 462] | “+++” (≥50 = +++)
466 (VLIANLEKL; listed as Homo sapiens) [compound 466] | “++++” (≥75% = ++++)
467 (FLAKDFNFL; listed as Homo sapiens) [compound 467] | “+++” (≥50 = +++)
468 (YLRSVGDGETV; listed as Homo sapiens) [compound 468] | “+++” (≥50 = +++)
471 (YLYNNMIAKI; listed as Homo sapiens) [compound 471] | “+++” (≥50 = +++)
473 (AMATESILHFA; listed as Homo sapiens) [compound 473] | “+++” (≥50 = +++)
474 (YLDPALELGPRNV; listed as Homo sapiens) [compound 474] | “+++” (≥50 = +++)

Substance | Peptide exchange (MHC class I binding score, peptide exchange yield)
476 (ALMERTGYSMV; listed as Homo sapiens) [compound 476] | “+++” (≥50 = +++)
478 (YLLHEKLNL; listed as Homo sapiens) [compound 478] | “+++” (≥50 = +++)
479 (SLFGNSGILENV; listed as Homo sapiens) [compound 479] | “+++” (≥50 = +++)
485 (NVPDSFNEV; listed as Homo sapiens) [compound 485] | “+++” (≥50 = +++)
486 (AVMESIQGV; listed as Homo sapiens) [compound 486] | “+++” (≥50 = +++)
488 (FLAEDPKVTL; listed as Homo sapiens) [compound 488] | “+++” (≥50 = +++)
489 (KMWEELPEVV; listed as Homo sapiens) [compound 489] | “+++” (≥50 = +++)
490 (FLLQHVQEL; listed as Homo sapiens) [compound 490] | “+++” (≥50 = +++)
491 (GLNDRSDAV; listed as Homo sapiens) [compound 491] | “++” (≥20% = ++)
492 (SLFDGFADGLGV; listed as Homo sapiens) [compound 492] | “+++” (≥50 = +++)
494 (ALQPEPIKV; listed as Homo sapiens) [compound 494] | “++” (≥20% = ++)
495 (FIFSEKPVFV; listed as Homo sapiens) [compound 495] | “+++” (≥50 = +++)
496 (FLVEKQPPQV; listed as Homo sapiens) [compound 496] | “+++” (≥50 = +++)
497 (GLLEKLTAI; listed as Homo sapiens) [compound 497] | “+++” (≥50 = +++)
500 (SLMEDQVLQL; listed as Homo sapiens) [compound 500] | “+++” (≥50 = +++)
501 (LLDPNVKSIFV; listed as Homo sapiens) [compound 501] | “+++” (≥50 = +++)
502 (RLLAQVPGL; listed as Homo sapiens) [compound 502] | “+++” (≥50 = +++)
503 (SLNHFTHSV; listed as Homo sapiens) [compound 503] | “+++” (≥50 = +++)
504 (GLSDGNPSL; listed as Homo sapiens) [compound 504] | “++” (≥20% = ++)
505 (SLAPGDVVRQV; listed as Homo sapiens) [compound 505] | “++” (≥20% = ++)

The next lines start with the values.

Peptide exchange (MHC class I binding score, peptide exchange yield) | Substance
“+++” (≥50 = +++) | 436 (HLAEVSAEV; listed as Homo sapiens) [compound 436]
“+++” (≥50 = +++) | 439 (YLLQEIYGI; listed as Homo sapiens) [compound 439]
“++” (≥20% = ++) | 440 (ALADGVTMQV; listed as Homo sapiens) [compound 440]
“+++” (≥50 = +++) | 441 (ALLENPKMEL; listed as Homo sapiens) [compound 441]
“+++” (≥50 = +++) | 443 (GLWEIENNPTV; listed as Homo sapiens) [compound 443]
“+++” (≥50 = +++) | 444 (GLLRDEALAEV; listed as Homo sapiens) [compound 444]
“++” (≥20% = ++) | 447 (QLVPALAKV; listed as Homo sapiens) [compound 447]
“++” (≥20% = ++) | 451 (LLLLDTVTMQV; listed as Homo sapiens) [compound 451]
“++” (≥20% = ++) | 453 (KLLEATSAV; listed as Homo sapiens) [compound 453]
“+++” (≥50 = +++) | 454 (KLPPPPPQA; listed as Homo sapiens) [compound 454]
“++” (≥20% = ++) | 461 (VMFRTPLASV; listed as Homo sapiens) [compound 461]
“+++” (≥50 = +++) | 463 (SLVESHLSDQLTL; listed as Homo sapiens) [compound 463]
“+++” (≥50 = +++) | 464 (ALNDCIYSV; listed as Homo sapiens) [compound 464]
“+++” (≥50 = +++) | 465 (QLCDLNAEL; listed as Homo sapiens) [compound 465]
“+++” (≥50 = +++) | 469 (YLASDEITTV; listed as Homo sapiens) [compound 469]
“+++” (≥50 = +++) | 472 (KLLEVSDDPQV; listed as Homo sapiens) [compound 472]
“+++” (≥50 = +++) | 475 (LLLNEEALAQI; listed as Homo sapiens) [compound 475]
“+++” (≥50 = +++) | 477 (ALLPASGQIAL; listed as Homo sapiens) [compound 477]
“+++” (≥50 = +++) | 480 (ALLEDSCHYL; listed as Homo sapiens) [compound 480]
“+++” (≥50 = +++) | 481 (GLIEDYEALL; listed as Homo sapiens) [compound 481]
“+++” (≥50 = +++) | 484 (SLIEKVTQL; listed as Homo sapiens) [compound 484]
“+++” (≥50 = +++) | 487 (LLINSVFHV; listed as Homo sapiens) [compound 487]
“+++” (≥50 = +++) | 493 (GLLGEKTQDLIGV; listed as Homo sapiens) [compound 493]
“+++” (≥50 = +++) | 498 (KLWTGGLDNTV; listed as Homo sapiens) [compound 498]
“++” (≥20% = ++) | 499 (KIFDIDEAEEGV; listed as Homo sapiens) [compound 499]
